Patent publication US6066502
Values belong to the molecule of their own block, whether it stands above or below them.

What was measured:
[1] = molecular target: human big endothelin-1 (human) (UniProt P05305)
[2] = molecular target: human big endothelin-1 (human) (UniProt P05305); remark: listed apart in the source
[3] = molecular target: human big endothelin-1 (human) (UniProt P05305); remark: listed apart in the source

UniProt P05305, sequence (P05305 53-90 limits assumed): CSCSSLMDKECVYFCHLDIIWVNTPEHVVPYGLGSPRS

Spec. activity [µU/mg] [1]: 15100 µU/mg
Molecule: endothelin converting enzyme (ECE-1) purified from FBHE bovine endothelial cells

volume-based activity of the secreted ECE (µunits/ml of cell culture medium) [2]: < 10
Molecule: secreted human ECE (extracellular domain of human ECE fused to the signal peptide of human t-PA) (enzyme)

Spec. activity (µU/mg protein) (µU/mg protein) [3]: 12000
B1: recombinant membrane-bound human ECE (complete human ECE expressed from pcDNA3neo in mammalian cells, colony 38) (enzyme)
chain: MSTYKRATLDEEDLVDSLSEGDAYPNGLQVNFHSPRSGQRCWAARTQVEKRLVVLVVLLAAGLVACLAALGIQYQTRSPSVCLSEACVSVTSSILSSMDPTVDPCHDFFSYACGGWIKANPVPDGHSRWGTFSNLWEHNQAIIKHLLENSTASVSEAERKAQVYYRACMNETRIEELRAKPLMELIERLGGWNITGPWAKDNFQDTLQVVTAHYRTSPFFSVYVSADSKNSNSNVIQVDQSGLGLPSRDYYLNKTENEKVLTGYLNYMVQLGKLLGGGDEEAIRPQMQQILDFETALANITIPQEKRRDEELIYHKVTAAELQTLAPAINWLPFLNTIFYPVEINESEPIVVYDKEYLEQISTLINTTDRCLLNNYMIWNLVRKTSSFLDQRFQDADEKFMEVMYGTKKTCLPRWKFCVSDTENNLGFALGPMFVKATFAEDSKSIATEIILEIKKAFEESLSTLKWMDEETRKSAKEKADAIYNMIGYPNFIMDPKELDKVFNDYTAVPDLYFENAMRFFNFSWRVTADQLRKAPNRDQWSMTPPMVNAYYSPTKNEIVFPAGILQAPFYTRSSPKALNFGGIGVVVGHELTHAFDDQGREYDKDGNLRPWWKNSSVEAFKRQTECMVEQYSNYSVNGEPVNGRHTLGENIADNGGLKAAYRAYQNWVKKNGAEHSLPTLGLTNNQLFFLGFAQVWCSVRTPESSHEGLITDPHSPSRFRVIGSLSNSKEFSEHFRCPPGSPMNPPHKCEVW
